Results on nine proteins are retold here after article PMC7441159, “The metal binding site composition of the cation diffusion facilitator protein MamM cytoplasmic domain impacts its metal responsivity” (Scientific Reports, 2020).

Changes are numbered by the printed parent chain. Numbers in names are those of the source.

Sequences and labels used below:
B1: MamM CTD H264E (domain or fragment, Magnetospirillum gryphiswaldense MSR-1, UniProt V6F235 215-318, looked up)
chain: EAVQNRIVEAAERVPGVRGVIHLRARYVGQDIWADMIIGVDPENTVEQAEEICEAVQAAVCGKIRRIESLHVSAEAREIGDTTKPSFSDQPLSFDEVMLSKVDN
notes: MamM cytoplasmic C-terminal domain (CTD), Magnetospirillum gryphiswaldense MSR-1, UniProt Q6NE57 residues 215-318; A thrombin site follows the His tag
B2: MamM CTD E289H (domain or fragment, Magnetospirillum gryphiswaldense MSR-1, UniProt V6F235 215-318, looked up)
chain: B1 chain with E50H, E75H
notes: as for B1
B3: MamM CTD H285D (domain or fragment, Magnetospirillum gryphiswaldense MSR-1, UniProt V6F235 215-318, looked up)
chain: B1 chain with E50H, H71D
notes: as for B1
B4: MamM CTD D249N (domain or fragment, Magnetospirillum gryphiswaldense MSR-1, UniProt V6F235 215-318, looked up)
chain: B1 chain with D35N, E50H
notes: as for B1
B5: MamM CTD D249E (domain or fragment, Magnetospirillum gryphiswaldense MSR-1, UniProt V6F235 215-318, looked up)
chain: B1 chain with D35E, E50H
notes: as for B1
B6: MamM CTD D249H-H285D (domain or fragment, Magnetospirillum gryphiswaldense MSR-1, UniProt V6F235 215-318, looked up)
chain: B1 chain with D35H, E50H, H71D
notes: as for B1
B7: MamM CTD D249H (domain or fragment, Magnetospirillum gryphiswaldense MSR-1, UniProt V6F235 215-318, looked up)
chain: B1 chain with D35H, E50H
notes: as for B1
B8: MamM CTD H264E-E289H (domain or fragment, Magnetospirillum gryphiswaldense MSR-1, UniProt V6F235 215-318, looked up)
chain: B1 chain with E75H
notes: MamM cytoplasmic C-terminal domain (CTD), Magnetospirillum gryphiswaldense MSR-1, UniProt Q6NE57 residues 215-318; A thrombin site follows the His tag; also called E289H-H264E
B9: MamM CTD E289D (domain or fragment, Magnetospirillum gryphiswaldense MSR-1, UniProt V6F235 215-318, looked up)
chain: B1 chain with E50H, E75D
notes: as for B1

This series deals with the molecule itself. The experiment in a line: crystal structure; homodimer seen in the crystal; vapor diffusion at 293 K, protein at 20 mg/mL in 10 mM Tris pH 8.0, 150 mM NaCl, 5 mM β-mercaptoethanol and 3.375 mM metal solution (ZnCl2, CdCl2, MnCl2, NiCl2 or CuSO4).
In the case of B1, the binding result was “binds”.

In the case of B2, the binding result was “binds”.

B3: the binding result is on record as “binds”.

For B4, the binding result was “binds”.

As to B5, the binding result is “binds”.

Turning to B6, the binding result is reported as “binds”.

Take B7: the binding result is reported as “binds”.

Take B8: the binding result is listed as “binds”.

In the case of B9, the binding result is “binds”.
